Reference: the RNAGym collection of RNA variant scans (doi:10.1073/pnas.2313332121)
This sample holds only a part of the variants without activity.

B1: TPR 5TU (parent)
chain: GGAUCUUCUCGAUCUAACAAAAAAGACAAAUCUGCCACAAAGCUUGAGAGCAUCUUCGGAUGCAGAGGCGGCAGCCUUCGGUGGCGCGAUAGCGCCAACGUUCUCAACUAUGACACGCAAAACGCGUGCUCCGUUGAAUGGAGUUUAUCAUG

Variants of: B1
Assay: polymerase ribozyme fitness, log enrichment relative to wild type (log ratio); higher = more active; in vitro selection for triplet polymerase activity
Outline: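 Input and output libraries were sequenced on Illumina after a single in vitro selection round, run in triplicate on PCR-built, transcribed mutant libraries of each subunit of a heterodimeric triplet polymerase ribozyme. Selection annealed libraries to a biotinylated primer, the partner subunit and triplets, incubated them frozen at −7 °C, then gel-excised extended constructs for streptavidin-bead capture and RT-PCR. Genotypes with ≥10 input reads and ≥1 read per output were kept. Fitness is the logarithm, taken in base 2, of genotype enrichment divided by wild-type enrichment, using inverse-variance-weighted replicate averages.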

Variant | polymerase ribozyme fitness (log ratio)
GGAUCUUCUCGAUCUAACAAAAAAGACAAAUCUGCCACAAAGCUUGAGAGCAUCUUCGGAUGCAGAGGCGGCAGCCUUCGGUGGCGCGAUAGCGCUAACGUUCUCAACUAUGACACGCAAAACGCGUGCUCCGUUGAAUGGAGUUGAUCAUG [C96U U146G] | -1.29
GGAUCUUCUCGAUCUAACAAAAAAGACAAAUCUGCCACAAAGCUUGAGAGCAUCUUCGGAUGCAGAGGCGGCAGCCUUCGGUGGCGCGAUAGCGCCAGCGUUCUCAACUAUGACACGCUAAACGAGUGCUCCGUUGAAUGGAGUUUAUCAGG [A98G A119U C125A U151G] | ≤ -4.2
GGAUCUUCUCGAUCUAACAAAAAAGACAAAUCUGCCACAAAGCUUGAGAGCAUCUUCGGAUGCAGAGGCGGCAGCCUUCGGUGGCGCGAUAGCGCCUACGUUCUCAACUAUGACACGCAAAAUGCGUGCUCCGUUGAAUGGAGUUUAUCAUG [A97U C123U] | 0.268
GGAUCUUCUCGAUCUAACAAAAAAGACAAAUCUGCCACAAAGCUUGAGAGCAUCUUCGGAUGCAGAGGCGGCAGCCUUCGGUGGCGCGAUAGCGCCGAUGUUCUCAACUAUGACACGCAAAACGCGUGCUCCGUUGAAUGGGGUUUAUCAUG [A97G C99U A142G] | -1.1
GGAUCUUCUCGAUCUAACAAAAAAGACAAAUCUGCCACAAAGCUUGAGAGCAUCUUCGGAUGCAGAGGCGGCAGCCUUCGGUGGCGCGAUAGCGCUAACGUUCUCAACUAUGACACGCAAAACGCGUGCUCCGUCGAAUUGAGUUUAUCAUG [C96U U135C G140U] | -3.67
GGAUCUUCUCGAUCUAACAAAAAAGACAAAUCUGCCACAAAGCUUGAGAGCAUCUUCGGAUGCAGAGGCGGCAGCCUUCGGUGGCGCGAUAGCGCCAGCGUUCUCAACUAUGACACGCAAAACGCGUGCUCCGUUGAAUCGAGUUUAUCAUG [A98G G140C] | -3.59
GGAUCUUCUCGAUCUAACAAAAAAGACAAAUCUGCCACAAAGCUUGAGAGCAUCUUCGGAUGCAGAGGCGGCAGCCUUCGGUGGCGCGAUAGCGCUAACGUUCUCAACUAUGACACGCAAAACGCGUGCUCCGCUGAAUGGAGUUUAUCAUG [C96U U134C] | -0.883
GGAUCUUCUCGAUCUAACAAAAAAGACAAAUCUGCCACAAAGCUUGAGAGCAUCUUCGGAUGCAGAGGCGGCAGCCUUCGGUGGCGCGAUAGCGCCGACGUUCUCAACUAUAACACGCAACACGCGUGCUCCGUUGAAUGUAGUUUAUCAUG [A97G G112A A121C G141U] | ≤ -4.2
GGAUCUUCUCGAUCUAACAAAAAAGACAAAUCUGCCACAAAGCUUGAGAGCAUCUUCGGAUGCAGAGGCGGCAGCCUUCGGUGGCGCGAUAGCGCCAUCGUUCUCAACUAUGACACGCAAAACGCGUGCUCCGUUGAAUGGAGUUGAUCUUG [A98U U146G A150U] | -0.247
GGAUCUUCUCGAUCUAACAAAAAAGACAAAUCUGCCACAAAGCUUGAGAGCAUCUUCGGAUGCAGAGGCGGCAGCCUUCGGUGGCGCGAUAGCGCCAAAGUUCUCAACUAUGACACGCAAAAGGCGUGCUCCGUUGAAUGGAGUGUAUCAUG [C99A C123G U145G] | 0.0034
GGAUCUUCUCGAUCUAACAAAAAAGACAAAUCUGCCACAAAGCUUGAGAGCAUCUUCGGAUGCAGAGGCGGCAGCCUUCGGUGGCGCGAUAGCGCCAAGGUUCUCAAUUAUGACACGCAAAACGCGUGCUCCGUUGAAUGGAGUUUAUCAUG [C99G C108U] | -4.14
GGAUCUUCUCGAUCUAACAAAAAAGACAAAUCUGCCACAAAGCUUGAGAGCAUCUUCGGAUGCAGAGGCGGCAGCCUUCGGUGGCGCGAUAGCGCCUACGUUCUCAACUAUGACACGCGAAACGCGUGCCCCGUUGAAUGGAGUUUAUCAUG [A97U A119G U130C] | 0.572
GGAUCUUCUCGAUCUAACAAAAAAGACAAAUCUGCCACAAAGCUUGAGAGCAUCUUCGGAUGCAGAGGCGGCAGCCUUCGGUGGCGCGAUAGCGCCAAGGUUCUCAACUAUGACACGCAAAACGCGUGCUCUGUUGAAUGGAGUUUAUCAUG [C99G C132U] | -1.96
GGAUCUUCUCGAUCUAACAAAAAAGACAAAUCUGCCACAAAGCUUGAGAGCAUCUUCGGAUGCAGAGGCGGCAGCCUUCGGUGGCGCGAUAGCGCCUACGUUCUCAACUAUGACACGCAAAACUCGUGCUCCGUUGAAUGGAGUUUAUGAUG [A97U G124U C149G] | -3.65
GGAUCUUCUCGAUCUAACAAAAAAGACAAAUCUGCCACAAAGCUUGAGAGCAUCUUCGGAUGCAGAGGCGGCAGCCUUCGGUGGCGCGAUAGCGCCAUCGUUCUCAACUAUGACACGCAAAACGCGUGCUCCGUUGAAUGAAGUUUAUCAUG [A98U G141A] | -0.0351
GGAUCUUCUCGAUCUAACAAAAAAGACAAAUCUGCCACAAAGCUUGAGAGCAUCUUCGGAUGCAGAGGCGGCAGCCUUCGGUGGCGCGAUAGCGCCAUCGUUCUCAACUAUGACACGCAAAACGCGUGCUCCGUUGAAUGCAGUUUAUCAUG [A98U G141C] | -0.0983
GGAUCUUCUCGAUCUAACAAAAAAGACAAAUCUGCCACAAAGCUUGAGAGCAUCUUCGGAUGCAGAGGCGGCAGCCUUCGGUGGCGCGAUAGCGCCAAGGUUCUCAACUAUGACACGCCAAACGCGUGCUCCGUUGAAUGGAGUUUAUCAUG [C99G A119C] | -0.2
GGAUCUUCUCGAUCUAACAAAAAAGACAAAUCUGCCACAAAGCUUGAGAGCAUCUUCGGAUGCAGAGGCGGCAGCCUUCGGUGGCGCGAUAGCGCCUGCGUUCUCAACUAUGACACGCAAAACGCGUGCUCCGUUGAAUGGAGUUUAUCAUG [A97U A98G] | -2.31
GGAUCUUCUCGAUCUAACAAAAAAGACAAAUCUGCCACAAAGCUUGAGAGCAUCUUCGGAUGCAGAGGCGGCAGCCUUCGGUGGCGCGAUAGCGCCAGCGUUCUCAACUAUGACACGAAAAACGCGUGAUCCGUUGAAUGGAGUUUAUCAUG [A98G C118A C129A] | -2.75

Variant | polymerase ribozyme fitness (log ratio)
GGAUCUUCUCGAUCUAACAAAAAAGACAAAUCUGCCACAAAGCUUGAGAGCAUCUUCGGAUGCAGAGGCGGCAGCCUUCGGUGGCGCGAUAGCGCCUACGUUCUCAACUAUGACACGCAAAACGCGUGCUCCGUUGAAUGGAGUUUAUCGUG [A97U A150G] | -1.61
GGAUCUUCUCGAUCUAACAAAAAAGACAAAUCUGCCACAAAGCUUGAGAGCAUCUUCGGAUGCAGAGGCGGCAGCCUUCGGUGGCGCGAUAGCGCCUACGUUCUCAACUAUGACACGCAAAACGCGUGCUCCGUUGUAUGGAGUUUAUCAUG [A97U A137U] | ≤ -4.2
GGAUCUUCUCGAUCUAACAAAAAAGACAAAUCUGCCACAAAGCUUGAGAGCAUCUUCGGAUGCAGAGGCGGCAGCCUUCGGUGGCGCGAUAGCGCCUACGUCCUCAACUAUGACACGCAAAACGCGUGCUCCGUUGACUGGAGUUUAUCAUG [A97U U102C A138C] | ≤ -4.2
GGAUCUUCUCGAUCUAACAAAAAAGACAAAUCUGCCACAAAGCUUGAGAGCAUCUUCGGAUGCAGAGGCGGCAGCCUUCGGUGGCGCGAUAGCGCCUACGUUCUCAACUAUGACACGCAAAACGCGUGCUCCGUGGAAUCGAGUUUAUCAUG [A97U U135G G140C] | ≤ -4.2
GGAUCUUCUCGAUCUAACAAAAAAGACAAAUCUGCCACAAAGCUUGAGAGCAUCUUCGGAUGCAGAGGCGGCAGCCUUCGGUGGCGCGAUAGCGCCAUCGUUCUCAACUAUGACACGCAAAACGCGUGCUCCGUAGAAUGGAGUUUAUCAUG [A98U U135A] | -2.55
GGAUCUUCUCGAUCUAACAAAAAAGACAAAUCUGCCACAAAGCUUGAGAGCAUCUUCGGAUGCAGAGGCGGCAGCCUUCGGUGGCGCGAUAGCGCCUACAUUCUCAACUAUGACACGCAAAACGCGUGCUCCGUUGAAUGGAGUUUAUCAUG [A97U G100A] | -4.1
GGAUCUUCUCGAUCUAACAAAAAAGACAAAUCUGCCACAAAGCUUGAGAGCAUCUUCGGAUGCAGAGGCGGCAGCCUUCGGUGGCGCGAUAGCGCCUACGUUCUCAACUAUGACACGCAAAACGCGUGCUCCGUUGAAUGGAGAUUAUCAUG [A97U U144A] | -1.56
GGAUCUUCUCGAUCUAACAAAAAAGACAAAUCUGCCACAAAGCUUGAGAGCAUCUUCGGAUGCAGAGGCGGCAGCCUUCGGUGGCGCGAUAGCGCCAAGGUUCUCAACUAUGACACGCAAAACGCGUGCUCCGUUGAAUGGAGUUUAUCAUG [C99G] | -0.744
GGAUCUUCUCGAUCUAACAAAAAAGACAAAUCUGCCACAAAGCUUGAGAGCAUCUUCGGAUGCAGAGGCGGCAGCCUUCGGUGGCGCGAUAGCGCCAAAGUUCUCAACUAUGACACGCAAAACGCGUGCUCCGUUGAAUGGAGUUUAUCAUG [C99A] | -0.806
GGAUCUUCUCGAUCUAACAAAAAAGACAAAUCUGCCACAAAGCUUGAGAGCAUCUUCGGAUGCAGAGGCGGCAGCCUUCGGUGGCGCGAUAGCGCCAAAGUUCUCAACUAUGACACGCAAAACGCGUGCUCCGUUGAAUGGAGUUUAUCGUG [C99A A150G] | -3.11
GGAUCUUCUCGAUCUAACAAAAAAGACAAAUCUGCCACAAAGCUUGAGAGCAUCUUCGGAUGCAGAGGCGGCAGCCUUCGGUGGCGCGAUAGCGCCAGCGUUCUCAACUAUGACACGCAAAACGCGUGCUCCGUUGAAUGGAGUUUAUCAUG [A98G] | -0.208
GGAUCUUCUCGAUCUAACAAAAAAGACAAAUCUGCCACAAAGCUUGAGAGCAUCUUCGGAUGCAGAGGCGGCAGCCUUCGGUGGCGCGAUAGCGCCAUCGUUCUCAACUAUGACACGCAAAACGCGUGCUCCGUUGAAUGGAGUUUAUCAUG [A98U] | -0.453
GGAUCUUCUCGAUCUAACAAAAAAGACAAAUCUGCCACAAAGCUUGAGAGCAUCUUCGGAUGCAGAGGCGGCAGCCUUCGGUGGCGCGAUAGCGCCAUCGUUCUCAACUAUGACCCGCAAAACGCGUGCUCCGUUGAAUGGAAUUUAUCAUG [A98U A115C G143A] | -3.88
GGAUCUUCUCGAUCUAACAAAAAAGACAAAUCUGCCACAAAGCUUGAGAGCAUCUUCGGAUGCAGAGGCGGCAGCCUUCGGUGGCGCGAUAGCGCCGACGUUAUCAACUAUGACACGCAAAACGCGUGCUCCGUUGAAUGGAGUUUAUCAUG [A97G C103A] | -0.693
GGAUCUUCUCGAUCUAACAAAAAAGACAAAUCUGCCACAAAGCUUGAGAGCAUCUUCGGAUGCAGAGGCGGCAGCCUUCGGUGGCGCGAUAGCGCCAGGGUUCUCAACUAUGACACGCAAAUCGCGUGCUCCGUUGAAUGGAGUUUAUCAUG [A98G C99G A122U] | -1.25
GGAUCUUCUCGAUCUAACAAAAAAGACAAAUCUGCCACAAAGCUUGAGAGCAUCUUCGGAUGCAGAGGCGGCAGCCUUCGGUGGCGCGAUAGCGCCUACGUUCUCAACUAUGACACGGAAGACGCGUGCUCCGUUGAAUGGAGUUUAUCAUG [A97U C118G A121G] | -1.56
GGAUCUUCUCGAUCUAACAAAAAAGACAAAUCUGCCACAAAGCUUGAGAGCAUCUUCGGAUGCAGAGGCGGCAGCCUUCGGUGGCGCGAUAGCGCUAACGUUCUCAACUAUGACACGCAAAACGCGCGCUCCGUUGAAUGGAGUUUAUCAUG [C96U U127C] | -1.34
GGAUCUUCUCGAUCUAACAAAAAAGACAAAUCUGCCACAAAGCUUGAGAGCAUCUUCGGAUGCAGAGGCGGCAGCCUUCGGUGGCGCGAUAGCGCCUACGUUCUCAACUAUGACACGCAAAACGCGUGCUCCGUUGAAUGUAGUUUAUCAUG [A97U G141U] | 0.189
GGAUCUUCUCGAUCUAACAAAAAAGACAAAUCUGCCACAAAGCUUGAGAGCAUCUUCGGAUGCAGAGGCGGCAGCCUUCGGUGGCGCGAUAGCGCCAGCGUUAUCAACUAUGACACGCAAAACGCGUGCUCCGUUGAAUGGAGUUUAUCAUG [A98G C103A] | -0.961
